Data: US20240034757A1 (OXFORD UNIVERSITY INNOVATION, published 2024)

Assays:
CCL5_HUMAN [1] = target: T1, CCL5_HUMAN (human, UniProt P13501 24-91); assay: BLI
T1 sequence: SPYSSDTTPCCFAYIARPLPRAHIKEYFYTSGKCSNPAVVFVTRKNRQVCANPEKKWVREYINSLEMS

CCL7_HUMAN [2] = target: T2, CCL7_HUMAN (human, UniProt P80098 24-99); assay: BLI
CCL8_HUMAN [3] = target: T3, CCL8_HUMAN (human, UniProt P80075 24-99); assay: BLI
T3 sequence (looked up): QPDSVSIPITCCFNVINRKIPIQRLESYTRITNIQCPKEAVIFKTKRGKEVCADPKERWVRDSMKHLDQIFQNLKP

CCL11_HUMAN = CCL11_HUMAN (human, UniProt P51671 24-97); assay: BLI
Sequence of CCL11_HUMAN (P51671 24-97 limits assumed): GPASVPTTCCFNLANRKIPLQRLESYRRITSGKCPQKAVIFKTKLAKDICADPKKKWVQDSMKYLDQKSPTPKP

CCL13_HUMAN = CCL13_HUMAN (human, UniProt Q99616 24-98); assay: BLI
Sequence of CCL13_HUMAN (Q99616 24-98 limits assumed): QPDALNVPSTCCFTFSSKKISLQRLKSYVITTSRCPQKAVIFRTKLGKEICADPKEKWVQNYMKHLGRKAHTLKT

CCL14_HUMAN = target: T4, CCL14_HUMAN (human, UniProt Q16627 22-93); assay: BLI
T4 sequence: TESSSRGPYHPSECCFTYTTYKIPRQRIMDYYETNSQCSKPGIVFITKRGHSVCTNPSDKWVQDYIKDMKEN

CCL15_HUMAN = target: T5, CCL15_HUMAN (human, UniProt Q16663 22-113); assay: BLI
T5 sequence: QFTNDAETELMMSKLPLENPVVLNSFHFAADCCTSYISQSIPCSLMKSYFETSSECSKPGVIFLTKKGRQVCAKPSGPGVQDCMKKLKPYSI

CCL16_HUMAN = target: T6, CCL16_HUMAN (human, UniProt O15467 24-120); assay: BLI
T6 sequence: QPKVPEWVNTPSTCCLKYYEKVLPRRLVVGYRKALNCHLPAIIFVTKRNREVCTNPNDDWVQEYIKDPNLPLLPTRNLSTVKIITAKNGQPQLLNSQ

CCL17_HUMAN = target: T7, CCL17_HUMAN (human, UniProt Q92583 24-94); assay: BLI
T7 sequence: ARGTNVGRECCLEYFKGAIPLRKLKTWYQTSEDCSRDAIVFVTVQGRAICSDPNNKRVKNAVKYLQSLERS

CCL18_HUMAN = target: T8, CCL18_HUMAN (human, UniProt P55774 21-89); assay: BLI
T8 sequence: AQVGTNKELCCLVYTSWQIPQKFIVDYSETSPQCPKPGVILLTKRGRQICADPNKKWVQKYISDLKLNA

CCL19_HUMAN = target: T9, CCL19_HUMAN (human, UniProt Q99731 22-98); assay: BLI
T9 sequence: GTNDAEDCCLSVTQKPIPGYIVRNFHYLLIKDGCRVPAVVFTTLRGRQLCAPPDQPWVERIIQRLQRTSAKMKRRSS

CCL20_HUMAN = CCL20_HUMAN (human, UniProt P78556 27-96); assay: BLI
Sequence of CCL20_HUMAN (P78556 27-96 limits assumed): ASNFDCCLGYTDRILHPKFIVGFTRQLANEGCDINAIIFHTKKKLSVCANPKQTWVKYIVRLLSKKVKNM

CCL21_HUMAN = target: T10, CCL21_HUMAN (human, UniProt O00585 24-134); assay: BLI
T10 sequence: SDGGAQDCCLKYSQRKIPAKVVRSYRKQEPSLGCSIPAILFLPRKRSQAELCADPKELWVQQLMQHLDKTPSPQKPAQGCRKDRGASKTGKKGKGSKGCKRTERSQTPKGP

CCL22_HUMAN = target: T11, CCL22_HUMAN (human, UniProt O00626 25-93); assay: BLI
T11 sequence: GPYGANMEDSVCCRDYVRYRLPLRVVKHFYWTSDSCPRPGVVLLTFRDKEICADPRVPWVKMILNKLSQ

CCL23_HUMAN = target: T12, CCL23_HUMAN (human, UniProt P55773 22-120); assay: BLI
T12 sequence: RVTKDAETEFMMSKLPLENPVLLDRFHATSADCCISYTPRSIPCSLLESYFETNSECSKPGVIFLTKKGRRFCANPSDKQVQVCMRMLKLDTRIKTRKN

CCL24_HUMAN = target: T13, CCL24_HUMAN (human, UniProt O00175 27-104); assay: BLI
T13 sequence: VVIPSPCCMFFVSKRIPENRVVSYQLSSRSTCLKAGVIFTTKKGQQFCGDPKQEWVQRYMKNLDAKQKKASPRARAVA

CCL27_HUMAN = target: T14, CCL27_HUMAN (human, UniProt Q9Y4X3 25-112); assay: BLI
T14 sequence: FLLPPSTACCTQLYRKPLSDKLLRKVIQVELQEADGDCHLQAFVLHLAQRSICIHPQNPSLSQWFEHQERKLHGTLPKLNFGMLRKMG

CCL1_HUMAN = target: T15, CCL1_HUMAN (human, UniProt P22362 24-96); assay: BLI
T15 sequence: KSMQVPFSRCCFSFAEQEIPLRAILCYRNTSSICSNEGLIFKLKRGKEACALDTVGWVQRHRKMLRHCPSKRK

CCL2_HUMAN [4] = target: T16, CCL2_HUMAN (human, UniProt P13500 24-99); assay: BLI
T16 sequence (P13500 24-99 limits assumed): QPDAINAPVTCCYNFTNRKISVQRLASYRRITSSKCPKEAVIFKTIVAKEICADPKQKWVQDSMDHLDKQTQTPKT

CCL3_HUMAN [5] = target: T17, CCL3_HUMAN (human, UniProt P10147 24-92); assay: BLI
T17 sequence: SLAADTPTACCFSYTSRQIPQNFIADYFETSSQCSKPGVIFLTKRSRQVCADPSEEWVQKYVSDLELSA

CCL3L1_HUMAN [6] = target: T18, CCL3L1_HUMAN (human, UniProt P16619 24-93); assay: BLI
T18 sequence: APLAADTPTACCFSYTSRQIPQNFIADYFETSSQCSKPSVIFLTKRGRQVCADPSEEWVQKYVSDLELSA

CCL4_HUMAN = target: T19, CCL4_HUMAN (human, UniProt P13236 24-92); assay: BLI
T19 sequence: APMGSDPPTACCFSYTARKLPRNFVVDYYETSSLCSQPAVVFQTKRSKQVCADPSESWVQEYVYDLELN

CCL4L1_HUMAN = target: T20, CCL4L1_HUMAN (human, UniProt Q8NHW4 24-92); assay: BLI
T20 sequence: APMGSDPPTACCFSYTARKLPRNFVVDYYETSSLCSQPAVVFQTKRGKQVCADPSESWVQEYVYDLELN

CCL5_HUMAN [7] = target: T1, CCL5_HUMAN; assay: cell-based or functional assay
CCL7_HUMAN [8] = target: T2, CCL7_HUMAN; assay: cell-based or functional assay
CCL8_HUMAN [9] = target: T3, CCL8_HUMAN; assay: cell-based or functional assay
CCL2_HUMAN [10] = target: T16, CCL2_HUMAN; assay: cell-based or functional assay
CCL3_HUMAN [11] = target: T17, CCL3_HUMAN; assay: cell-based or functional assay
CCL3L1_HUMAN [12] = target: T18, CCL3L1_HUMAN; assay: cell-based or functional assay
CCL5_HUMAN [13] = target: T1, CCL5_HUMAN; assay: BLI, evasin on nickel sensor
CXCL1_HUMAN = target: T21, CXCL1_HUMAN (human, UniProt P09341 35-107); assay: BLI, sensor already loaded with CCL5
T21 sequence: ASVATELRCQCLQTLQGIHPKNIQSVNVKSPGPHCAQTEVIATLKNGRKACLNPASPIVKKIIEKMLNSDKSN

CXCL8_HUMAN = target: T22, CXCL8_HUMAN (human, UniProt P10145 28-99); assay: BLI, sensor already loaded with CCL5
T22 sequence: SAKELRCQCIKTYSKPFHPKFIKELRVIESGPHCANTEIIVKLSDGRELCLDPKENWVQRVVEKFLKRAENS

T2 sequence (P80098 24-99 limits assumed): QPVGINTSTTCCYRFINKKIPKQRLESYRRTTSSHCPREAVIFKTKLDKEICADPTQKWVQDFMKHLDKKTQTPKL

B1: P991_AMBCA (other)
chain: ENGEGTTQPDYDNSTDYYNYEDFKCTCPAPHLNNTNGTVMKPIGCYYTCNVTRCTAPDTYPCYNLTEHQAKNLTTSPTTLCAVGNCDHGICVPNGTKELCFKAPNLEE
RT (CCL5_HUMAN [1]): 113 min | RT (CCL7_HUMAN [2]): 508 min | RT (CCL8_HUMAN [3]): 10.8 min | RT (CCL11_HUMAN): 24.9 min | RT (CCL13_HUMAN): 290 min | RT (CCL14_HUMAN): 192 min | RT (CCL15_HUMAN): 1.08 min | RT (CCL16_HUMAN): 102 min | RT (CCL17_HUMAN): 10.3 min | RT (CCL18_HUMAN): 185 min | RT (CCL19_HUMAN): 7 min | RT (CCL20_HUMAN): 7.03 min | RT (CCL21_HUMAN): 12.1 min | RT (CCL22_HUMAN): 16.8 min | RT (CCL23_HUMAN): 32.3 min | RT (CCL24_HUMAN): 7.07 min | RT (CCL27_HUMAN): 4.14 min | RT (CCL1_HUMAN): 5.37 min | RT (CCL2_HUMAN [4]): 4.17 min | RT (CCL3_HUMAN [5]): 42.6 min | RT (CCL3L1_HUMAN [6]): 52 min | RT (CCL4_HUMAN): 32.2 min | RT (CCL4L1_HUMAN): 42.8 min | IC50, THP1 cell migration (CCL5_HUMAN [7]): 1.84 nM | IC50, THP1 cell migration (CCL7_HUMAN [8]): 6.51 nM | IC50, THP1 cell migration (CCL8_HUMAN [9]): 2.1 nM | IC50, THP1 cell migration (CCL2_HUMAN [10]): 4.78 nM | IC50, THP1 cell migration (CCL3_HUMAN [11]): 2.9 nM | IC50, THP1 cell migration (CCL3L1_HUMAN [12]): 1.17 nM

B2: P1156:G4S:P1243 (designed binder)
chain: ADDDNELFTVQYCGMNCTKDEGGTWTGCTGKKEGCKCYHESGKNYGLCLSTEYTDFSQYGNPSDSEIEAAKPKRSDTLSHGGGGSRNHTEDNSTEYYDYEEARCACPARHLNNTNGTVLKLLGCHYFCNGTLCTAPDGYPCYNLTAQQVRTLTTYPNTSCAVGVCMKGTCVKNGTMEQCFKTP
notes: also called two-warhead evasin
binding result (CCL5_HUMAN [13]): binds | binding result (CXCL1_HUMAN): binds | binding result (CXCL8_HUMAN): binds
